B13: E2412-611 (other)
chain: QLINTNGSWHINSTALNCNESLNTGWLAGLFYQHKFNSSGCPERLASCRRLTDFAQGWGPISYANGSGLDERPYCWHYPPRPCGIVPAKSVCGPVYCFTPSPVVVGTTDRSGAPTYSWGANDTDVFVLNNTRPPLGNWFGCTWMNSTGFTKVCGAPPCVIGGVGNNTLLCPTDCFRKHPEATYSRCGSGPWITPRCMVDYLEDYKDDDDK
B14: maltose binding protein fused-large extracellular loop of CD81 (receptor)
chain: FVNKDQIAKDVKQFYDQALQQAVVDDDANNAKAVVKTFHETLDCCGSSTLTALTTSVLKNNLCPSGSNIISNLFKEDCHQKIDDLFSGK
notes: also called CD81-LEL; MBP-fused CD81-LEL
B15: E2456-645 (other)
chain: LASCRRLTDFAQGWGPISYANGSGLDERPYCWHYPPRPCGIVPAKSVCGPVYCFTPSPVVVGTTDRSGAPTYSWGANDTDVFVLNNTRPPLGNWFGCTWMNSTGFTKVCGAPPCVIGGVGNNTLLCPTDCFRKHPEATYSRCGSGPWITPRCMVDYPYRLWHYPCTINYTIFKVRMYVGGVEHRLEAACNLEDYKDDDDK
B16: E2492-645 (other)
chain: RPCGIVPAKSVCGPVYCFTPSPVVVGTTDRSGAPTYSWGANDTDVFVLNNTRPPLGNWFGCTWMNSTGFTKVCGAPPCVIGGVGNNTLLCPTDCFRKHPEATYSRCGSGPWITPRCMVDYPYRLWHYPCTINYTIFKVRMYVGGVEHRLEAACNLEDYKDDDDK

Legend:
E1E2 of HCV isolate H77 [1] = target: T1, E1E2 of HCV isolate H77 (hepatitis C virus genotype 1a, isolate …, UniProt P27958 192-383; P27958 384-746); experiment: cell-based or functional assay
[2] = target: vaccinia-expressed E1E2 (isolate HCV-1) (hepatitis C virus genotype 1a, isolate …, UniProt P26664 192-383; P26664 384-746); experiment: ELISA on lectin-captured E1E2; apparent affinity = half-maximal binding
E1E2 of HCV isolate H77 [3] = target: T1, E1E2 of HCV isolate H77; experiment: as above
E1E2 of HCV isolate H77 [4] = target: T1, E1E2 of HCV isolate H77; experiment: ELISA, mAb inhibits E1E2 (H77) binding to coated CD81-LEL
E2412-574 [5] = target: T2, E2412-574 (hepatitis C virus isolate H77, UniProt P27958 412-574); experiment: capture ELISA, coated mAb, 293T supernatant
E2456-645 = target: B15; experiment: capture ELISA, coated mAb, 293T supernatant
E2412-589 [6] = target: T3, E2412-589 (hepatitis C virus isolate H77, UniProt P27958 412-588); experiment: capture ELISA, coated mAb, 293T supernatant
E2492-645 = target: B16; experiment: capture ELISA, coated mAb, 293T supernatant
E2412-611 = target: B13; experiment: capture ELISA, coated mAb, 293T supernatant
[7] = target: B14; experiment: capture ELISA
[8] = target: B14; experiment: capture ELISA, coated CD81-LEL captures Flag-tagged E2 mutant
[9] = target: B14; experiment: capture ELISA, coated CD81-LEL, 293T supernatant
E2412-574 [10] = target: T2, E2412-574; experiment: capture ELISA, coated CD81-LEL, 293T supernatant
E2412-589 [11] = target: T3, E2412-589; experiment: capture ELISA, coated CD81-LEL, 293T supernatant

B1: MAb AR1A (antibody, V domains shown)
VH: LEQSGAEVKKPGSSVKVSCRASGSPYSSYTITWVRQAPGQGLEWMGGIILMTGKANYAQKFQGRVTITADRATATAYMEMSSLTSDDTAIYYCARDPYVYAGDDVRSLSRWGQGTPVIVSS
VL: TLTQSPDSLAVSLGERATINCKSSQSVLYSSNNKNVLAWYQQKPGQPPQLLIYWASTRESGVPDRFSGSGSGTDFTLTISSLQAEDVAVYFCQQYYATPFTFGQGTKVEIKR
notes: also called IgG1 AR1A
**Q.** Which results are given for B1?
**A.** Neutralizing activity (IC50), HCVpp (E1E2 of HCV isolate H77 [1]): > 50 µg/mL; EC50 [2]: 2.6 nM; EC50 (E1E2 of HCV isolate H77 [3]): 3.8 nM; IC50 (E1E2 of HCV isolate H77 [4]): 5.7 nM

B2: MAb AR1B (antibody, V domains shown)
VH: LESGGGLVQPGGSLRLSCEASGYYFSSFAMSWVRQTPGKGLEWVSSIAGGTLGRTSYRDSVKGRFTISRDNSKNTVFLHMNNLRPEDTAVYYCAKDPLLFAGGPNWFDHWGQGTLVTVSS
VL: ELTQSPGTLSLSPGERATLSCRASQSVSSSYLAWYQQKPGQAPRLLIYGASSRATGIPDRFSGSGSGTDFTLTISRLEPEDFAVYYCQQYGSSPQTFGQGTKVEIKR
notes: also called IgG1 AR1B
**Q.** How did the “Neutralizing activity (IC50), HCVpp” value (E1E2 of HCV isolate H77 [1]) turn out when B2 was run?
**A.** The value was > 50 µg/mL.

**Q.** What about the EC50 [2] of the same binder?
**A.** The EC50 was 0.4 nM.

**Q.** What about the EC50 (E1E2 of HCV isolate H77 [3]) of the same binder?
**A.** Its EC50 is 0.6 nM.

B3: MAb AR2A (antibody, V domains shown)
VH: LEQSGAEMKKPGASLKVSCKTSGYTFDDYGVTWVRQAPGQGLEWMGWISAYSGNTFYARKFQGRVTMTTDPSTRTAYMELRSLRSDDTAVYFCARDRGLAINGVVFPYFGLDVWGQGTTVTVSS
VL: ELTQSPVSLPVTPGEPASISCRSSQSLLHSNGNHYLDWYLQKPGQSPQLLMYLGSNRASGVPDRFSGSGSGTDFTLKISRVEAEDVGVYYCMQGLQTPWTFGQGTKVEIKR
notes: also called IgG1 AR2A
**Q.** With B3 as the binder, how does the “Neutralizing activity (IC50), HCVpp” value (E1E2 of HCV isolate H77 [1]) read?
**A.** The value was 1 µg/mL.

**Q.** And the EC50 [2]?
**A.** The EC50 was 3.1 nM.

**Q.** And the EC50 (E1E2 of HCV isolate H77 [3])?
**A.** Its EC50 is 1.6 nM.

B4: MAb AR3C (antibody, V domains shown)
VH: LEQSGAEVKKPGSSVKVSCETSGGTLDNYALNWVRQAPGQGLEWIGGVVPLFGTTRNAQKFQGRVTISDDKSTGTGHMELRSLRSEDTAVYYCVRSVTPRYCGGGFCYGEFDYWGQGTLVTVSS
VL: ELTQSPATLSVSPGERATLSCRASQSVSSNLAWYQQKPGQAPRLLIYGASTRATGIPARFSGSGSGTDFTLTVSRLEPEDSAVYFCQQYRSPLTFGGGTKVEIKR
notes: also called IgG1 AR3C
**Q.** How did the “Neutralizing activity (IC50), HCVpp” value (E1E2 of HCV isolate H77 [1]) turn out when B4 was run?
**A.** The value was 1 µg/mL.

**Q.** And the EC50 [2]?
**A.** The EC50 was 1.4 nM.

**Q.** What about the EC50 (E1E2 of HCV isolate H77 [3]) of the same binder?
**A.** The EC50 was 2.3 nM.

**Q.** What about the IC50 (E1E2 of HCV isolate H77 [4]) of the same binder?
**A.** Its IC50 is 2 nM.

**Q.** Does B4 bind (E2412-574 [5])?
**A.** Result: no binding

**Q.** Does B4 bind (E2456-645)?
**A.** Result: no binding

**Q.** Does B4 bind (E2412-589 [6])?
**A.** Result: no binding

**Q.** Does B4 bind (E2492-645)?
**A.** Result: no binding

**Q.** Does B4 bind (E2412-611)?
**A.** Result: no binding

B5: E2412-661 (other)
chain: QLINTNGSWHINSTALNCNESLNTGWLAGLFYQHKFNSSGCPERLASCRRLTDFAQGWGPISYANGSGLDERPYCWHYPPRPCGIVPAKSVCGPVYCFTPSPVVVGTTDRSGAPTYSWGANDTDVFVLNNTRPPLGNWFGCTWMNSTGFTKVCGAPPCVIGGVGNNTLLCPTDCFRKHPEATYSRCGSGPWITPRCMVDYPYRLWHYPCTINYTIFKVRMYVGGVEHRLEAACNWTRGERCDLEDRDRSELEDYKDDDDK
**Q.** Does B5 bind [7]?
**A.** Result: binds

B6: E2412-645 (other)
chain: QLINTNGSWHINSTALNCNESLNTGWLAGLFYQHKFNSSGCPERLASCRRLTDFAQGWGPISYANGSGLDERPYCWHYPPRPCGIVPAKSVCGPVYCFTPSPVVVGTTDRSGAPTYSWGANDTDVFVLNNTRPPLGNWFGCTWMNSTGFTKVCGAPPCVIGGVGNNTLLCPTDCFRKHPEATYSRCGSGPWITPRCMVDYPYRLWHYPCTINYTIFKVRMYVGGVEHRLEAACNLEDYKDDDDK
**Q.** Does B6 bind [7]?
**A.** Result: binds

B7: E2ΔTM (other)
chain: ETHVTGGNAGRTTAGLVGLLTPGAKQNIQLINTNGSWHINSTALNCNESLNTGWLAGLFYQHKFNSSGCPERLASCRRLTDFAQGWGPISYANGSGLDERPYCWHYPPRPCGIVPAKSVCGPVYCFTPSPVVVGTTDRSGAPTYSWGANDTDVFVLNNTRPPLGNWFGCTWMNSTGFTKVCGAPPCVIGGVGNNTLLCPTDCFRKHPEATYSRCGSGPWITPRCMVDYPYRLWHYPCTINYTIFKVRMYVGGVEHRLEAACNWTRGERCDLEDRDRSELSPLLLSTTQWQVLPCSFTTLPALSTGLIHLHQNIVDVQYLYGVGSSIASWAIKWELEDYKDDDDK
**Q.** Does B7 bind [7]?
**A.** Result: binds

B8: MAb AR3B (antibody, V domains shown)
VH: LEQSGPEVKKPGSSVKVSCKDSGDTFNEPVTWVRQAPGQGLEWIGGIIPAFGVTKYAQKFQGRVIISADASTATAYLELSSLRSEDTAVYYCAKVGLRGIVMVGGLAMNWLDPWGQGTQVTVSS
VL: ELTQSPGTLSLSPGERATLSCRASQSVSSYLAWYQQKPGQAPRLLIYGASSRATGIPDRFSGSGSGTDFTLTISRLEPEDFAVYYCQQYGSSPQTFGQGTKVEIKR
notes: also called IgG1 AR3B
**Q.** B8 was tested. Which EC50 [2] did it give?
**A.** The EC50 was 2 nM.

B9: MAb AR3D (antibody, V domains shown)
VH: LEQSGAEVKKPGSSVKVSCKASGDTFRSYVITWARQAPGQGLEWMGAIIPFFGTTNLAQKFQGRVTITADESTKTVYMDLSSLRSDDTAVYYCAKAGDLSVGGVLAGGVPHLRHFDPWGQGTLVTVSS
VL: ELTQSPGTLSLSPGERATLSCRAGQTVASNSLAWYQHKPGQAPRLLIYGASIRASGIPDRFSGSGSGTDFTLTISRLEPEDFAVYYCQQYGLSPSTFGQGTRLEIKR
notes: also called IgG1 AR3D
**Q.** With B9 as the binder, how does the EC50 [2] read?
**A.** The EC50 was 2.4 nM.

B10: E2ΔN5 (other)
chain: QLINTNGSWHINSTALNCNESLNTGWLAGLFYQHKFNSSGCPERLASCGSSGCWHYPPRPCGIVPAKSVCGPVYCFTPSPVVVGTTDRSGAPTYSWGANDTDVFVLNNTRPPLGNWFGCTWMNSTGFTKVCGAPPCVIGGVGNNTLLCPTDCFRKHPEATYSRCGSGPWITPRCMVDYPYRLWHYPCTINYTIFKVRMYVGGVEHRLEAACNLEDYKDDDDK
**Q.** Does B10 bind [8]?
**A.** Result: binds

B11: E2ΔN9 (other)
chain: QLINTNGSWHINSTALNCNESLNTGWLAGLFYQHKFNSSGCPERLASCRRLTDFAQGWGPISYANGSGLDERPYCWHYPPRPCGIVPAKSVCGPVYCFTPSPVVVGTTDRSGAPTYSWGANDTDVFVLNNTRPPLGNWFGCTWMNSTGFTKVCGAPPCGSSGCPTDCFRKHPEATYSRCGSGPWITPRCMVDYPYRLWHYPCTINYTIFKVRMYVGGVEHRLEAACNLEDYKDDDDK
**Q.** Does B11 bind [8]?
**A.** Result: binds

B12: E2ΔN5N9 (other)
chain: QLINTNGSWHINSTALNCNESLNTGWLAGLFYQHKFNSSGCPERLASCGSSGCWHYPPRPCGIVPAKSVCGPVYCFTPSPVVVGTTDRSGAPTYSWGANDTDVFVLNNTRPPLGNWFGCTWMNSTGFTKVCGAPPCGSSGCPTDCFRKHPEATYSRCGSGPWITPRCMVDYPYRLWHYPCTINYTIFKVRMYVGGVEHRLEAACNLEDYKDDDDK
**Q.** Does B12 bind [8]?
**A.** Result: binds

**Q.** Does B13 bind [9]?
**A.** Result: no binding

**Q.** Which results are given for B14?
**A.** binding result (E2412-574 [10]): no binding; binding result (E2412-589 [11]): no binding

**Q.** Does B15 bind [9]?
**A.** Result: no binding

**Q.** Does B16 bind [9]?
**A.** Result: no binding

From patent publication US20100104555A1 (Scripps Research, published 2010)
